In the supplement of paper PMC12042874 one finds amyloid nucleation score data, which are given here for 53 substances.

± gives the uncertainty stated by the source.

This data set is described as follows: amyloid nucleation score (Sup35N fusion, yeast selection) (log enrichment); library NNK3; higher = more nucleation; inactive = no reads after selection. Put shortly: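 Sup35N was fused to peptides of 20 random codons and expressed in psi-negative yeast, which were induced with 100 μM copper sulfate for 24 hours and then grown on medium lacking adenine and uracil for 7 days at 30°C. Plasmid inserts from input and output were sequenced on Illumina. The nucleation score is the DiMSum log enrichment of output over input reads, centred on the mode score of non-aggregating sequences. Sequences with under 100 input reads were left out, and random libraries had three technical output replicates.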
Consider TVVKPNRLAYHSQLFCKAHT, for which the amyloid nucleation score entry was “inactive”.

On to SVAGRCVSWNQRGKGLRNAR, for which the amyloid nucleation score result was “inactive”.

Turning to RMTVKQMLYHDWCTVRPSYC, the amyloid nucleation score entry was “inactive”.

Take HYINYINLQMVYFDVGQMYC: the amyloid nucleation score is 2.96 ± 0.062.

For DSLLDGYSHWAKWGSTRCVR, the amyloid nucleation score entry was “inactive”.

On to WCFYFEQDMFHAPY, for which the amyloid nucleation score was -0.106 ± 0.82.

As for FRSTCTFHCMERSRLRISPK, the amyloid nucleation score result is “inactive”.

In the case of SMDMRWAFICLILTITSMGR, the amyloid nucleation score result was “inactive”.

With TCTLEFLNY, the amyloid nucleation score entry was “inactive”.

Consider WYKNYASTRIPMIEWKRILT, for which the amyloid nucleation score result is “inactive”.

ADNRHIFFIGFQRVLSFSWA registered an amyloid nucleation score of 1.25 ± 0.1.

In the case of VFIGSVGFSDLWKLSVAYNY, the amyloid nucleation score result was “inactive”.

For SYCDVFTGNNLHLVVSFFYS, the amyloid nucleation score turned out to be 2.7 ± 0.053.

As to KWPQLIWSGTYFKPFWSING, the amyloid nucleation score entry was “inactive”.

For the substance VALDNCTFVLVAMQTDQD, the amyloid nucleation score is 0.817 ± 0.12.

In the case of RMPAFLCGYC, the amyloid nucleation score result was “inactive”.

As to GPILL, the amyloid nucleation score result is “inactive”.

Take MLVATL: the amyloid nucleation score entry was “inactive”.

For GDNRFLYELFLPHLNVVSNL, the amyloid nucleation score entry was “inactive”.

The substance LMLIFRLNCG registered an amyloid nucleation score of 1.62 ± 0.097.

With VYLIKPMNDALSHHEPIKWD, the amyloid nucleation score entry was “inactive”.

SYYTISLRMSFTTYFCLKMS displayed an amyloid nucleation score of 0.665 ± 0.13.

On to CCAVLFRGVRGMVRCNWNFD, for which the amyloid nucleation score result is “inactive”.

TLAPKYFYFFVKDVFGTSYC yielded an amyloid nucleation score of 1.54 ± 0.093.

On to LLTVSLPMDGST, for which the amyloid nucleation score result was “inactive”.

As for SRAMVKVRSNFRQRK, the amyloid nucleation score result is “inactive”.

In the case of HVNSMA, the amyloid nucleation score entry is “inactive”.

YHYLSNVGMRWGDFTYSWFM: the amyloid nucleation score result is “inactive”.

Regarding PSSLKYSKRVLSVSIHWERL, the amyloid nucleation score entry was “inactive”.

In the case of DQGNPSNSSLDLPLGGSFGE, the amyloid nucleation score result is “inactive”.

As to VEMFNITAYTIKSLRVIGLV, the amyloid nucleation score result was “inactive”.

For the substance AVYSWCARTYSILSTLRGEF, the amyloid nucleation score result was “inactive”.

QLLVF registered an amyloid nucleation score of -1.23 ± 1.9.

Take GNLDTS: the amyloid nucleation score is -0.668 ± 1.

Consider DILGVCLSMNYWVI, for which the amyloid nucleation score entry is “inactive”.

In the case of YQICGCSCLSYLPFLTSSIF, the amyloid nucleation score result was “inactive”.

For the substance ARHVENSAKGFVGYLRRMHV, the amyloid nucleation score result is “inactive”.

Substance LFSNNNCLNIWVWLV registered an amyloid nucleation score of 2.19 ± 0.081.

Turning to VLKKGGVFVWFAWECNTCSD, the amyloid nucleation score result was “inactive”.

Turning to SSRAAVY, the amyloid nucleation score result is “inactive”.

As for IKSKNAVCCHFATTMQDSLT, the amyloid nucleation score entry is “inactive”.

Turning to LSLYPFMWKYIIGAGKWLFL, the amyloid nucleation score result is “inactive”.

As to LFMEYWSVATCRNSGIVFIV, the amyloid nucleation score entry is “inactive”.

For LYLNEYELTLEAKRDYMNMR, the amyloid nucleation score result is “inactive”.

With VIFISILPLRKCSDKWEDNN, the amyloid nucleation score entry is “inactive”.

With LDWCAYWVSVISRWN, the amyloid nucleation score entry is “inactive”.

FTRWIWFIVITSASCFKSFH: the amyloid nucleation score result was “inactive”.

LWWCTLYSILYGTLSTYSCS: the amyloid nucleation score entry was “inactive”.

RACARVLLEVCFLFEFSMST: the amyloid nucleation score result was “inactive”.

With SCGTCKTSFIKR, the amyloid nucleation score result was “inactive”.

With STDNVGMGKGWTGVIGWRVM, the amyloid nucleation score result is “inactive”.

Take VRYPRSLVCYWYGRNHAVWA: the amyloid nucleation score entry was “inactive”.

As to DLGLNYFESSRDPDGSLLYL, the amyloid nucleation score entry is “inactive”.
